# Test results taken from patent US20250361274A1, “PEPTIDE AND PEPTIDE-CONTAINING AGENT” (PEPTIDREAM INC., priority 2022, published 2025).
# Numbered stars: 1 amine (or outer) side, 2 acyl side, 3 side chain; on linkers, the order of the positions; unused ones are H or OH. Bridge positions count the residues as written; N and C are the ends. Square brackets hold non-standard residues; d marks the D form. Ends that are not written are not given here. Peptide text beside a SMILES is read from it. * marks the point of attachment. KCOpipzaa = N6-(4-(carboxymethyl)piperazine-1-carbonyl)-L-lysine, O=C(NCCCC[C@H](N[*:1])C(=O)[*:2])N1CCN(CC(=O)[*:3])CC1; X8 = 4‑(carboxymethyl)piperazine‑1‑carbonyl, O=C(O)CN1CCN(C(=O)*)CC1; Phe(4-guanidino) = N=C(N)Nc1ccc(C[C@H](N)C(=O)O)cc1; 3Pal(6-Ph) = N[C@@H](Cc1ccc(-c2ccccc2)nc1)C(=O)O; Phe(4-COOH) = N[C@@H](Cc1ccc(C(=O)O)cc1)C(=O)O; NMePhe(4-Me) = CN[C@@H](Cc1ccc(C)cc1)C(=O)O; Bip = N[C@@H](Cc1ccc(-c2ccccc2)cc1)C(=O)O; Pro(cis-4-F) = O=C(O)[C@@H]1C[C@H](F)CN1; Nle(6-COOH) = N[C@@H](CCCCC(=O)O)C(=O)O; X1 = N=C(CN)NCCC[C@H](N[*:1])C(=O)[*:2]; Phe(4-F) = N[C@@H](Cc1ccc(F)cc1)C(=O)O; Ala(4-THP) = N[C@@H](CC1CCOCC1)C(=O)O; NMeF = CN[C@@H](Cc1ccccc1)C(=O)O; 4Pal = N[C@@H](Cc1ccncc1)C(=O)O; Tic = O=C(O)[C@@H]1Cc2ccccc2CN1; Aad = N[C@@H](CCCC(=O)O)C(=O)O; Cha = N[C@@H](CC1CCCCC1)C(=O)O; MeY = Methyl-L-tyrosine; Abu = CC[C@H](N)C(=O)O; βAla = NCCC(=O)O
# How the values were obtained:
# [1] = biological target: T1, BMP4 (Homo sapiens, UniProt P12644); assay: BMP4 signal transduction inhibitory activity: SMAD1 phosphorylation by BMP4 stimulus, AlphaLISA SureFire, A549 cells; type: cell-based; settings: for aLISA BMP4: inhibition of SMAD1 phosphorylation by BMP4 stimulus, A549 cells
# T1 sequence (P12644 293-408): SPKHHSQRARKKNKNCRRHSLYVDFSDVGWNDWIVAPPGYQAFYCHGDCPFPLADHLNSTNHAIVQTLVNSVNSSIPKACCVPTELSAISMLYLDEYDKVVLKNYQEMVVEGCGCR
# [2] = biological target: T2, BMP7 (Homo sapiens, UniProt P18075); assay: BMP7 signal transduction inhibitory activity: SMAD1 phosphorylation by BMP7 stimulus, A549 cells; type: cell-based; settings: for aLISA BMP7: inhibition of SMAD1 phosphorylation by BMP7 stimulus, A549 cells
# T2 sequence (P18075 293-431): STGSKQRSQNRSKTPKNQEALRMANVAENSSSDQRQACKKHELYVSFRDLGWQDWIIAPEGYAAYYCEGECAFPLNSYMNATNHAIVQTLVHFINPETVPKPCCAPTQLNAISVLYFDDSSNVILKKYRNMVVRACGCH
# In short: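 Inhibition was measured as loss of BMP7-induced SMAD1 phosphorylation, using 10 nM BMP7 on A549 cells. Most peptides were given as three-concentration sets, such as 1/10/100, 10/100/1,000, 100/300/1,000 or 10/30/90 nM. Others were given as eight 1/3-ratio dilutions from 100 or 1,000 nM, alongside Noggin as control.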
# [3] = AlphaLISA, class by peptide concentration zone
# [4] = peptides of Synthesis 1, classes D-F, ND
# [5] = peptides of Synthesis 1, classes E, F, ND
# [6] = BMP4 0.2 nM stimulus, peptide conc. in assay 2, 20, 200 nM
# [7] = BMP7 10 nM stimulus, peptide conc. in assay 10, 30, 90 nM
# [8] = peptides of Synthesis 2, classes A-C, ND
# [9] = peptides of Synthesis 2, classes A-D, ND
# [10] = SMAD1 phosphorylation, BMP4 0.2 nM, peptide conc. in assay 0.2, 2, 20 nM
# [11] = SMAD1 phosphorylation, BMP7 10 nM, peptide conc. in assay 1, 10, 100 nM
compound,measurement,setting,value
59 (Ac-AK(X8)VYVDR[Bip]PYP[Bip][Phe(4-F)][Phe(4-COOH)][Phe(4-COOH)]SCG-NH2; thioether (positions not given here); not fully specified (bridges)) [compound 59],aLISA BMP4,[1]; [3],A (showed an inhibitory activity of 50% or more in a zone to which the peptide was added to in an amount of 0.2 nM)
same,aLISA BMP7,[2]; [3],C (showed less than 50% of inhibitory activity in 10 nM-addition zone and showed 50% or more of inhibitory activity in 100 nM-addition zone)
146 ({CH2CO}-ERVYVDR[Bip]PY[Ala(4-THP)][Bip]Y[Phe(4-COOH)][Phe(4-COOH)]SCG-NH2; thioether N-17; not fully specified) [compound 146],aLISA BMP4,[1]; [4],D (showed 50% or more of inhibitory activity in 0.2 nM-addition zone)
same,aLISA BMP7,[2]; [5],E (showed 50% or more of inhibitory activity in a zone to which the peptide was added in an amount of 10 nM)
"420 ([Phe(4-F)]G[NMeF]G[3Pal(6-Ph)]GDE[Cha][Aad][NMePhe(4-Me)]L[Abu]C-NH2; also: cyclic peptide, ring closure not given here) [compound 420]",aLISA BMP4 (0.2 nM) % inh,"[1]; BMP4 0.2 nM stimulus, peptide conc. in assay 0.2, 2, 20 nM",ND (the inhibitory activity was less than 30% at the maximum concentration evaluated)
same,aLISA BMP7 (10 nM) % inh,"[2]; BMP7 10 nM stimulus, peptide conc. in assay 1, 10, 100 nM",D (showed less than 30% of inhibitory activity in 10 nM-addition zone and showed 30% or more of inhibitory activity in 100 nM-addition zone)
391 (FG[NMeF]G[Bip]GDD[Cha]AYLHCG-NH2; not fully specified (residue 11)) [compound 391],aLISA BMP4 (0.2 nM) % inh,[1]; [6],A (showed less than 30% of inhibitory activity in 2 nM-peptide-addition zone and showed 30% or more of inhibitory activity in 20 nM-addition zone)
same,aLISA BMP7 (10 nM) % inh,[2]; [7],F (showed less than 30% of inhibitory activity in 10 nM-addition zone and showed 30% or more of inhibitory activity in 30 nM-addition zone)
123 ({CH2CO}-ERV[Phe(4-COOH)]V[KCOpipzaa]R[Bip]PYV[Bip]Y[Phe(4-COOH)][Phe(4-COOH)]SC[βAla][dE]-OH; thioether N-17; not fully specified) [compound 123],aLISA BMP4,[1]; [8],A (showed an inhibitory activity of 50% or more in a zone to which the peptide was added to in an amount of 0.2 nM)
same,aLISA BMP7,[2]; [9],C (showed less than 50% of inhibitory activity in 10 nM-addition zone and showed 50% or more of inhibitory activity in 100 nM-addition zone)
"362 (FG[NMeF]GFGDE[Cha]A[NMeF]LHCG-NH2; not fully specified (N-terminus, bridges)) [compound 362]",aLISA BMP4 (0.2 nM) % inh,[1]; [10],ND (the inhibitory activity was less than 30% at the maximum concentration evaluated)
same,aLISA BMP7 (10 nM) % inh,[2]; [11],D (showed less than 30% of inhibitory activity in 10 nM-addition zone and showed 30% or more of inhibitory activity in 100 nM-addition zone)
134 ({CH2CO}-ERVYVD[Phe(4-guanidino)][Bip]PYV[Bip]Y[Phe(4-COOH)][Phe(4-COOH)]SCG-NH2; thioether N-17; not fully specified) [compound 134],aLISA BMP4,[1]; [4],E (showed less than 50% of inhibitory activity in 0.2 nM-addition zone and showed 50% or more of inhibitory activity in 2 nM-addition zone)
same,aLISA BMP7,[2]; [5],E (showed 50% or more of inhibitory activity in a zone to which the peptide was added in an amount of 10 nM)
109 ({CH2CO}-ERVYVDR[Bip]PY[Pro(cis-4-F)][Bip]Y[Phe(4-COOH)][Phe(4-COOH)]SC[βAla][dE]-OH; thioether N-17; not fully specified) [compound 109],aLISA BMP4,[1]; [8],C (showed an inhibitory activity of less than 50% in 0.2 nM-addition zone and showed an inhibitory activity of 50% or more in 2 nM-addition zone were defined as B or C)
same,aLISA BMP7,[2]; [9],C (showed less than 50% of inhibitory activity in 10 nM-addition zone and showed 50% or more of inhibitory activity in 100 nM-addition zone)
131 ({CH2CO}-ERVYDDR[Bip]PYV[Bip]Y[Phe(4-COOH)][Phe(4-COOH)]SCG-NH2; thioether N-17; not fully specified) [compound 131],aLISA BMP4,[1]; [4],D (showed 50% or more of inhibitory activity in 0.2 nM-addition zone)
same,aLISA BMP7,[2]; [5],F (showed less than 50% of inhibitory activity in 10 nM-addition zone and showed 50% or more of inhibitory activity in 100 nM-addition zone)
41 ({CH2CO}-A[Tic]VYVDK[Bip]PYP[Bip]Y[Phe(4-COOH)][Phe(4-COOH)]SCG-NH2; thioether N-17) [compound 41],aLISA BMP4,[1]; [3],C (showed an inhibitory activity of less than 50% in 0.2 nM-addition zone and showed an inhibitory activity of 50% or more in 2 nM-addition zone were defined as B or C)
same,aLISA BMP7,[2]; [3],ND (the inhibitory activity was less than 30% at the maximum concentration evaluated)
387 (FG[MeY]G[Bip]GDD[Cha]A[NMeF]LHCG-NH2; not fully specified) [compound 387],aLISA BMP4 (0.2 nM) % inh,[1]; [6],A (showed less than 30% of inhibitory activity in 2 nM-peptide-addition zone and showed 30% or more of inhibitory activity in 20 nM-addition zone)
same,aLISA BMP7 (10 nM) % inh,[2]; [7],F (showed less than 30% of inhibitory activity in 10 nM-addition zone and showed 30% or more of inhibitory activity in 30 nM-addition zone)
CC(C)C[C@@H]1NC(=O)[C@H](Cc2ccc(O)cc2)NC(=O)[C@H](C(C)C)NC(=O)[C@H](CCCNC(=N)N)NC(=O)[C@H](CCCCC(=O)O)NC(=O)CSC[C@@H](C(=O)NCC(N)=O)NC(=O)[C@H](CO)NC(=O)[C@H](Cc2ccc(C(=O)O)cc2)NC(=O)[C@H](Cc2ccc(C(=O)O)cc2)NC(=O)[C@H](Cc2ccc(O)cc2)NC(=O)[C@H](Cc2ccc(-c3ccccc3)cc2)NC(=O)[C@H](C(C)C)NC(=O)[C@H](Cc2ccc(O)cc2)NC(=O)[C@H](CO)NC(=O)[C@H](Cc2ccc(-c3ccccc3)nc2)NC(=O)[C@H](CCCNC(=N)CN)NC(=O)[C@H](CC(=O)O)NC1=O [SEQ ID No. 87] ({CH2CO}-[Nle(6-COOH)]RVYLD[X1][3Pal(6-Ph)]SYV[Bip]Y[Phe(4-COOH)][Phe(4-COOH)]SCG-NH2; thioether N-17),BMP4 inhibitory activity (in words),[1],same level of the BMP4 inhibitory activity as Noggin
same,aLISA BMP4,[1]; [8],A (showed an inhibitory activity of 50% or more in a zone to which the peptide was added to in an amount of 0.2 nM)
same,BMP7 inhibitory activity (in words),[2],does not inhibit signal transduction of BMP7
same,aLISA BMP7,[2]; [9],ND (the inhibitory activity was less than 30% at the maximum concentration evaluated)
249 (ERVHVDR[3Pal(6-Ph)]SYV[Bip]Y[Phe(4-COOH)][Phe(4-COOH)]SCG-NH2; not fully specified) [compound 249],aLIZA BMP4 (0.2 nM) % Inh,"[1]; SMAD1 phosphorylation by BMP4 stimulus, peptide conc. in assay 0.02, 0.2, 2 nM, class symbols",C (showed less than 30% of inhibitory activity in 0.2 nM-addition zone and showed 30% or more of inhibitory activity in 2 nM-addition zone)
same,aLIZA BMP7 (10 nM) % Inh,"[2]; SMAD1 phosphorylation by BMP7 stimulus, peptide conc. in assay 10, 100, 1000 nM, class symbols","E (showed less than 30% of inhibitory activity in 100 nM-addition zone and showed 30% or more of inhibitory activity in 1,000 nM-addition zone)"
72 ({CH2CO}-ERVYVDR[Bip]PYP[Bip][Phe(4-F)][Phe(4-COOH)][4Pal]SCG-NH2; thioether N-17; not fully specified) [compound 72],aLISA BMP4,[1]; [3],A (showed an inhibitory activity of 50% or more in a zone to which the peptide was added to in an amount of 0.2 nM)
same,aLISA BMP7,[2]; [3],C (showed less than 50% of inhibitory activity in 10 nM-addition zone and showed 50% or more of inhibitory activity in 100 nM-addition zone)
324 (FG[NMeF]GFGDD[Cha]A[NMeF]LHCG-NH2) [compound 324],aLISA BMP4 (0.2 nM) % inh,[1]; [10],ND (the inhibitory activity was less than 30% at the maximum concentration evaluated)
same,aLISA BMP7 (10 nM) % inh,[2]; [11],D (showed less than 30% of inhibitory activity in 10 nM-addition zone and showed 30% or more of inhibitory activity in 100 nM-addition zone)
"366 (FG[NMeF]G[Bip]GDE[Cha][Aad][NMeF]LHCG-NH2; not fully specified (N-terminus, bridges)) [compound 366]",aLISA BMP4 (0.2 nM) % inh,[1]; [10],ND (the inhibitory activity was less than 30% at the maximum concentration evaluated)
same,aLISA BMP7 (10 nM) % inh,[2]; [11],D (showed less than 30% of inhibitory activity in 10 nM-addition zone and showed 30% or more of inhibitory activity in 100 nM-addition zone)
